Test results published in US20200199241A1 (Chugai, published 2020).

B1: IgG1-F403 (antibody)
heavy: QVQLQESGPGLVKPSETLSLTCAVSGHSISHDHAWSWVRQPPGEGLEWIGFISYSGITNYNPSLQGRVTISRDNSKNTLYLQMNSLRAEDTAVYYCARSLARTTAMDYWGEGTLVTVSSASTKGPSVFPLAPSSKSTSGGTAALGCLVKDYFPEPVTVSWNSGALTSGVHTFPAVLQSSGLYSLSSVVTVPSSSLGTQTYICNVNHKPSNTKVDKKVEPKSCDKTHTCPPCPAPELLGGPSVFLFPPKPKDTLMISRTVEVTCVVVDVSHEDPEVKFNWYVDGVEVHNAKTKPREEQYNSTYRVVSVLAVLHQDWLNGKEYKCKVSNKALPAPIEKTISKAKGQPREPQVYTLPPSRDELTKNQVSLTCLVKGFYPSDIAVEWESNGQPENNYKTTPPVLDSDGSFFLYSKLTVDKSRWQQGNVFSCSVLHEALHWHYTQKSLSLSP
light: not shown
notes: EU numbering; copies: 2 + 2
B2: IgG1-F404 (antibody)
heavy: QVQLQESGPGLVKPSETLSLTCAVSGHSISHDHAWSWVRQPPGEGLEWIGFISYSGITNYNPSLQGRVTISRDNSKNTLYLQMNSLRAEDTAVYYCARSLARTTAMDYWGEGTLVTVSSASTKGPSVFPLAPSSKSTSGGTAALGCLVKDYFPEPVTVSWNSGALTSGVHTFPAVLQSSGLYSLSSVVTVPSSSLGTQTYICNVNHKPSNTKVDKKVEPKSCDKTHTCPPCPAPELLGGPSVFLFPPKPKDTLMISRTAEVTCVVVDVSHEDPEVKFNWYVDGVEVHNAKTKPREEQYNSTYRVVSVLQVPHQDWLNGKEYKCKVSNKALPAPIEKTISKAKGQPREPQVYTLPPSRDELTKNQVSLTCLVKGFYPSDIAVEWESNGQPENNYKTTPPVLDSDGSFFLYSKLTVDKSRWQQGNVFSCSVLHEALHYHYTQKSLSLSP
light: not shown
notes: EU numbering; 'M928L' read as M428L; copies: 2 + 2
B3: IgG1-F411 (antibody)
heavy: QVQLQESGPGLVKPSETLSLTCAVSGHSISHDHAWSWVRQPPGEGLEWIGFISYSGITNYNPSLQGRVTISRDNSKNTLYLQMNSLRAEDTAVYYCARSLARTTAMDYWGEGTLVTVSSASTKGPSVFPLAPSSKSTSGGTAALGCLVKDYFPEPVTVSWNSGALTSGVHTFPAVLQSSGLYSLSSVVTVPSSSLGTQTYICNVNHKPSNTKVDKKVEPKSCDKTHTCPPCPAPELLGGPSVFLFPPKPKDTLMISRTVEVTCVVVDVSHEDPEVKFNWYVDGVEVHNAKTKPREEQYNSTYRVVSVLNVLHQDWLNGKEYKCKVSNKALPAPIEKTISKAKGQPREPQVYTLPPSRDELTKNQVSLTCLVKGFYPSDIAVEWESNGQPENNYKTTPPVLDSDGSFFLYSKLTVDKSRWQQGNVFSCSVLHEALHYHYTQKSLSLSP
light: not shown
notes: EU numbering; copies: 2 + 2
B4: IgG1-F407 (antibody)
heavy: QVQLQESGPGLVKPSETLSLTCAVSGHSISHDHAWSWVRQPPGEGLEWIGFISYSGITNYNPSLQGRVTISRDNSKNTLYLQMNSLRAEDTAVYYCARSLARTTAMDYWGEGTLVTVSSASTKGPSVFPLAPSSKSTSGGTAALGCLVKDYFPEPVTVSWNSGALTSGVHTFPAVLQSSGLYSLSSVVTVPSSSLGTQTYICNVNHKPSNTKVDKKVEPKSCDKTHTCPPCPAPELLGGPSVFLFPPKPKDTLMISRTVEVTCVVVDVSHEDPEVKFNWYVDGVEVHNAKTKPREEQYNSTYRVVSVLQVRHQDWLNGKEYKCKVSNKALPAPIEKTISKAKGQPREPQVYTLPPSRDELTKNQVSLTCLVKGFYPSDIAVEWESNGQPENNYKTTPPVLDSDGSFFLYSKLTVDKSRWQQGNVFSCSVLHEALHYHYTQKSLSLSP
light: not shown
notes: EU numbering; copies: 2 + 2
B5: IgG1-F409 (antibody)
heavy: QVQLQESGPGLVKPSETLSLTCAVSGHSISHDHAWSWVRQPPGEGLEWIGFISYSGITNYNPSLQGRVTISRDNSKNTLYLQMNSLRAEDTAVYYCARSLARTTAMDYWGEGTLVTVSSASTKGPSVFPLAPSSKSTSGGTAALGCLVKDYFPEPVTVSWNSGALTSGVHTFPAVLQSSGLYSLSSVVTVPSSSLGTQTYICNVNHKPSNTKVDKKVEPKSCDKTHTCPPCPAPELLGGPSVFLFPPKPKDTLMISRTVEVTCVVVDVSHEDPEVKFNWYVDGVEVHNAKTKPREEQYNSTYRVVSVLTVLHQDWLNGKEYKCKVSNKALPAPIEKTISKAKGQPREPQVYTLPPSRDELTKNQVSLTCLVKGFYPSDIAVEWESNGQEENNYKTTPPVLDSDGSFFLYSKLTVDKSRWQQGNVFSCSVLHEALHYHYTQKSLSLSP
light: not shown
notes: EU numbering; copies: 2 + 2
B6: IgG1-F410 (antibody)
heavy: QVQLQESGPGLVKPSETLSLTCAVSGHSISHDHAWSWVRQPPGEGLEWIGFISYSGITNYNPSLQGRVTISRDNSKNTLYLQMNSLRAEDTAVYYCARSLARTTAMDYWGEGTLVTVSSASTKGPSVFPLAPSSKSTSGGTAALGCLVKDYFPEPVTVSWNSGALTSGVHTFPAVLQSSGLYSLSSVVTVPSSSLGTQTYICNVNHKPSNTKVDKKVEPKSCDKTHTCPPCPAPELLGGPSVFLFPPKPKDTLMISRTVEVTCVVVDVSHEDPEVKFNWYVDGVEVHNAKTKPREEQYNSTYRVVSVLHVLHQDWLNGKEYKCKVSNKALPAPIEKTISKAKGQPREPQVYTLPPSRDELTKNQVSLTCLVKGFYPSDIAVEWESNGQPENNYKTTPPVLDSDGSFFLYSKLTVDKSRWQQGNVFSCSVLHEALHYHYTQKSLSLSP
light: not shown
notes: EU numbering; copies: 2 + 2
B7: IgG1-F408 (antibody)
heavy: QVQLQESGPGLVKPSETLSLTCAVSGHSISHDHAWSWVRQPPGEGLEWIGFISYSGITNYNPSLQGRVTISRDNSKNTLYLQMNSLRAEDTAVYYCARSLARTTAMDYWGEGTLVTVSSASTKGPSVFPLAPSSKSTSGGTAALGCLVKDYFPEPVTVSWNSGALTSGVHTFPAVLQSSGLYSLSSVVTVPSSSLGTQTYICNVNHKPSNTKVDKKVEPKSCDKTHTCPPCPAPELLGGPSVFLFPPKPKDTLMISRTVEVTCVVVDVSHEDPEVKFNWYVDGVEVHEAKTKPREEQYNSTYRVVSVLTVLHQDWLNGKEYKCKVSNKALPAPIEKTISKAKGQPREPQVYTLPPSRDELTKNQVSLTCLVKGFYPSDIAVEWESNGQPENNYKTTPPVLDSDGSFFLYSKLTVDKSRWQQGNVFSCSVLHEALHYHYTQKSLSLSP
light: not shown
notes: EU numbering; copies: 2 + 2
B8: IgG1-F405 (antibody)
heavy: QVQLQESGPGLVKPSETLSLTCAVSGHSISHDHAWSWVRQPPGEGLEWIGFISYSGITNYNPSLQGRVTISRDNSKNTLYLQMNSLRAEDTAVYYCARSLARTTAMDYWGEGTLVTVSSASTKGPSVFPLAPSSKSTSGGTAALGCLVKDYFPEPVTVSWNSGALTSGVHTFPAVLQSSGLYSLSSVVTVPSSSLGTQTYICNVNHKPSNTKVDKKVEPKSCDKTHTCPPCPAPELLGGPSVFLFPPKPKDTLMISRTVEVTCVVVDVSHEDPEVKFNWYVDGVEVHNAKTKPREEQYNSTYRVVSVLQVPHQDWLNGKEYKCKVSNKALPAPIEKTISKAKGQPREPQVYTLPPSRDELTKNQVSLTCLVKGFYPSDIAVEWESNGQPENNYKTTPPVLDSDGSFFLYSKLTVDKSRWQQGNVFSCSVLHEALHYHYTQKSLSLSP
light: not shown
notes: EU numbering; copies: 2 + 2
B9: IgG1-F406 (antibody)
heavy: QVQLQESGPGLVKPSETLSLTCAVSGHSISHDHAWSWVRQPPGEGLEWIGFISYSGITNYNPSLQGRVTISRDNSKNTLYLQMNSLRAEDTAVYYCARSLARTTAMDYWGEGTLVTVSSASTKGPSVFPLAPSSKSTSGGTAALGCLVKDYFPEPVTVSWNSGALTSGVHTFPAVLQSSGLYSLSSVVTVPSSSLGTQTYICNVNHKPSNTKVDKKVEPKSCDKTHTCPPCPAPELLGGPSVFLFPPKPKDTLMISRTAEVTCVVVDVSHEDPEVKFNWYVDGVEVHNAKTKPREEQYNSTYRVVSVLQVRHQDWLNGKEYKCKVSNKALPAPIEKTISKAKGQPREPQVYTLPPSRDELTKNQVSLTCLVKGFYPSDIAVEWESNGQPENNYKTTPPVLDSDGSFFLYSKLTVDKSRWQQGNVFSCSVLHEALHYHYTQKSLSLSP
light: not shown
notes: EU numbering; copies: 2 + 2

target: T1, human FcRn (soluble human FcRn complexed with β2-microglobulin) (human, UniProt P61769 21-119, limits assumed); test: SPR, pH 7.0;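 further: antibodies captured on a Protein L sensor chip with human FcRn injected as analyte, KD calculated from fitted association and dissociation rate constants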
T1 construct: also called hFcRn
T1 sequence (chain, as listed by the source limits assumed, chain 1 of 2): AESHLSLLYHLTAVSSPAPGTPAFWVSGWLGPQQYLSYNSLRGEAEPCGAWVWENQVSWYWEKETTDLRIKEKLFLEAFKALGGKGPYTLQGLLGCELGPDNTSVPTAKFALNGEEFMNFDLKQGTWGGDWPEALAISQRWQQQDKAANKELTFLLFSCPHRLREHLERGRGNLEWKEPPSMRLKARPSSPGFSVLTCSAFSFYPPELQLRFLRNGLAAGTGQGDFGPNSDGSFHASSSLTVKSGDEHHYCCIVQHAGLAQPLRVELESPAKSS
T1 sequence (P61769 21-119 limits assumed, chain 2 of 2): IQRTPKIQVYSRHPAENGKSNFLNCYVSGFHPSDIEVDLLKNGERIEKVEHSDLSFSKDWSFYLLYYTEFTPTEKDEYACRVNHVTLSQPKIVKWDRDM

Point of comparison: B1, Kd 51 nM. Against it:
- B2 — 1.8-fold higher, 94 nM
- B3 — 2.5-fold higher, 130 nM
- B4 — 3.1-fold higher, 160 nM
- B5 — 3.9-fold higher, 200 nM
- B6 — 4.3-fold higher, 220 nM
- B7 — 4.9-fold higher, 250 nM
- B8 — 3.3-fold higher, 170 nM
- B9 — 2.9-fold higher, 150 nM
